Measured values reported in article PMC3799434, “RNA polymerase III-specific general transcription factor IIIC contains a heterodimer resembling TFIIF Rap30/Rap74” (Nucleic Acids Research, 2013).

Tests used:
[1] = target: T1, Sfc1 186-283 (winged helix, lacks WHI) (Schizosaccharomyces pombe, UniProt O14229 186-283); assay: filter binding; conditions: Buffer D: 20 mM Tris-HCl pH 7.5, 200 mM KCl, 2 mM MgCl2, 10 mM DTT, 25 C (EMSA and nitrocellulose filter binding)
T1 sequence: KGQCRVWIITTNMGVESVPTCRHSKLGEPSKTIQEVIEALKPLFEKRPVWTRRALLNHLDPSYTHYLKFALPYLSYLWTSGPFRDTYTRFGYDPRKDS

[2] = target: T2, Sfc1-DBD (Schizosaccharomyces pombe, UniProt O14229 186-396); assay: unspecified (data not shown); similar affinity to A-box; Buffer D: 20 mM Tris-HCl pH 7.5, 200 mM KCl, 2 mM MgCl2, 10 mM DTT, 25 C (EMSA and nitrocellulose filter binding); conditions: protein: recombinant; tags: N-terminal His-tag, TEV-cleaved; label: 32P; blunt
T2 sequence: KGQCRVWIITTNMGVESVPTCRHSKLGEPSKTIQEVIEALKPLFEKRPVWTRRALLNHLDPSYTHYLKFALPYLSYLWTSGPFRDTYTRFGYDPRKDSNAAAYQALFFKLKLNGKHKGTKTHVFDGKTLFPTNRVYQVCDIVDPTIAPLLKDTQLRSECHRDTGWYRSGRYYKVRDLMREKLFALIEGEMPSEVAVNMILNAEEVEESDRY

[3] = target: T3, Sfc7 (S. pombe TFIIIC τA subunit), full length (Schizosaccharomyces pombe, UniProt A6X980 1-120); assay: ion-exchange chromatography; fragments from limited proteolysis of the purified Sfc1/Sfc7 heterodimer, separated by ion-exchange chromatography; conditions: both partners purified
T3 construct: Sfc7, Schizosaccharomyces pombe, full length (Mr = 13.3 kDa); cloned into pCDF-MCN; PDB 4BJJ holds residues 1-101; also called orthologue of S. cerevisiae τ55 (Tfc7) and human TFIIIC35; source: E. coli BL21 (DE3) RIPL, co-expressed with Sfc1, purified (Ni-NTA, TEV, second Ni-NTA, Mono Q, Superdex S200)
T3 sequence (looked up): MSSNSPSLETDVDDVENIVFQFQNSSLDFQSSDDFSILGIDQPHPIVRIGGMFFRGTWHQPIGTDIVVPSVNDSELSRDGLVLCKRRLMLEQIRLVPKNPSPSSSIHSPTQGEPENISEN

[4] = target: T1, Sfc1 186-283 (winged helix, lacks WHI); assay: filter binding; Buffer D: 20 mM Tris-HCl pH 7.5, 200 mM KCl, 2 mM MgCl2, 10 mM DTT, 25 C (EMSA and nitrocellulose filter binding); conditions: protein: recombinant; tags: N-terminal His-tag, TEV-cleaved; label: 32P; blunt
[5] = target: T4, Sfc1 full length;Sfc7 full length (Schizosaccharomyces …, UniProt O14229;A6X980 1-456;1-120, |); assay: as above; conditions: protein: recombinant;recombinant; tags: N-terminal His-tag, TEV-cleaved;; copies: 1;1; label: 32P; blunt
T4 sequence 1: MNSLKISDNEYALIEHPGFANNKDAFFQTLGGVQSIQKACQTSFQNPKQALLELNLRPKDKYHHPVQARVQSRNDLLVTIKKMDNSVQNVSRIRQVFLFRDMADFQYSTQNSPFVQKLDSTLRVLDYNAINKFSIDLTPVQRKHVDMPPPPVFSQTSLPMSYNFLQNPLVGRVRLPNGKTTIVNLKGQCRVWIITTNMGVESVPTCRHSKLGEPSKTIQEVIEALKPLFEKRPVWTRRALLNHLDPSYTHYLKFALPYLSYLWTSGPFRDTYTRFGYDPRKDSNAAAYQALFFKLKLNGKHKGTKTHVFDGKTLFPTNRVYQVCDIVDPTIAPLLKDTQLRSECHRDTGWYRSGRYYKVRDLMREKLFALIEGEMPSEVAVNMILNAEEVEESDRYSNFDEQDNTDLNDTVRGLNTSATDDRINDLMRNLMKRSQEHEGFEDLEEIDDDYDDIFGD
T4 sequence 2: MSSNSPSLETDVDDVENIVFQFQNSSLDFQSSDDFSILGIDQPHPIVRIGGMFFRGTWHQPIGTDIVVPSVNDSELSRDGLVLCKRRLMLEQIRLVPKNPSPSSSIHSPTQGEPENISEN

[6] = target: T5, Sfc1 111-456 (Schizosaccharomyces pombe, UniProt O14229 111-456); assay: as above; conditions: protein: recombinant; tags: N-terminal His-tag, TEV-cleaved; label: 32P; blunt
T5 sequence: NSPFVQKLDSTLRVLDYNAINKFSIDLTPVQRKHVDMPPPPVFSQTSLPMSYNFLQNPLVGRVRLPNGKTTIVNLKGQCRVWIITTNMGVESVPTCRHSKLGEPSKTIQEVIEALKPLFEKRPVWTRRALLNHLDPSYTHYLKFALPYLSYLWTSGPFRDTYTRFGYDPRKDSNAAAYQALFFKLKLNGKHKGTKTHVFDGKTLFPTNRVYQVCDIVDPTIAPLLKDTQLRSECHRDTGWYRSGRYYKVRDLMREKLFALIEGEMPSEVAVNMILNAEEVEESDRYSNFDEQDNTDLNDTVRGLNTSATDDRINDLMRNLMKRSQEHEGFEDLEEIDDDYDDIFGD

[7] = target: T6, Sfc1 1-396;Sfc7 full length (Schizosaccharomyces …, UniProt O14229;A6X980 1-396;1-120, |); assay: as above; conditions: protein: recombinant;recombinant; tags: N-terminal His-tag, TEV-cleaved;; copies: 1;1; label: 32P; blunt
T6 sequence 1: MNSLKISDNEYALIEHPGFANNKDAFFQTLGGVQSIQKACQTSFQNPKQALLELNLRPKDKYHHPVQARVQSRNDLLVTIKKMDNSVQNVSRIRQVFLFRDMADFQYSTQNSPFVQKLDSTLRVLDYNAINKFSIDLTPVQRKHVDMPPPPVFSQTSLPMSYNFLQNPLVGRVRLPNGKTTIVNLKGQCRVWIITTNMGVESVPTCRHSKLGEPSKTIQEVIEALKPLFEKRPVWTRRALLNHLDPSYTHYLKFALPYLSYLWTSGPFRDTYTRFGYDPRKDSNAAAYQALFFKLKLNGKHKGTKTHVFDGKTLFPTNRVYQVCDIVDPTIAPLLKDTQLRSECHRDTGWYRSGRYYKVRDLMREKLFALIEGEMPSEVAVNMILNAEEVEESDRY
T6 sequence 2: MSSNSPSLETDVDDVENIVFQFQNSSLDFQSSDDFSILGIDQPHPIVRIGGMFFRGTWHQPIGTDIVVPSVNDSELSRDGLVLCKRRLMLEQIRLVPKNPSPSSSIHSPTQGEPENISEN

[8] = target: T7, Sfc1 186-456 (Schizosaccharomyces pombe, UniProt O14229 186-456); assay: as above; conditions: protein: recombinant; tags: N-terminal His-tag, TEV-cleaved; label: 32P; blunt
T7 sequence: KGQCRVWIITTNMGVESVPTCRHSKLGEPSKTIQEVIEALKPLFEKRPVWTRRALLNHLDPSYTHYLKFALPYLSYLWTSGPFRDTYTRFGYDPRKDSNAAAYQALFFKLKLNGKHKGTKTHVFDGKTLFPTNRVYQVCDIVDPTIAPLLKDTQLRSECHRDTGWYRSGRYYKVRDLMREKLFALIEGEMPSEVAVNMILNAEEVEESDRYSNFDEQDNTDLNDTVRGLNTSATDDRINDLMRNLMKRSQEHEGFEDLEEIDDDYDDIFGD

[9] = target: T8, Sfc1-DBD K294A (Schizosaccharomyces pombe, UniProt O14229 186-396, K294A); assay: as above; conditions: protein: recombinant; tags: N-terminal His-tag, TEV-cleaved; label: 32P; blunt
T8 sequence: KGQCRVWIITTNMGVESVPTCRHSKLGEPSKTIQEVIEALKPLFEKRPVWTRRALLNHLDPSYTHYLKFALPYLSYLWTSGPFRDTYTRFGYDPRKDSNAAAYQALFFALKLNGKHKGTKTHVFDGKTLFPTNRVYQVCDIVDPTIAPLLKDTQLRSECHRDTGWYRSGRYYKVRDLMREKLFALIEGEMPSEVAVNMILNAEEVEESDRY

[10] = target: T9, Sfc1-DBD R237A (Schizosaccharomyces pombe, UniProt O14229 186-396, R237A); assay: as above; conditions: protein: recombinant; tags: N-terminal His-tag, TEV-cleaved; label: 32P; blunt
T9 sequence: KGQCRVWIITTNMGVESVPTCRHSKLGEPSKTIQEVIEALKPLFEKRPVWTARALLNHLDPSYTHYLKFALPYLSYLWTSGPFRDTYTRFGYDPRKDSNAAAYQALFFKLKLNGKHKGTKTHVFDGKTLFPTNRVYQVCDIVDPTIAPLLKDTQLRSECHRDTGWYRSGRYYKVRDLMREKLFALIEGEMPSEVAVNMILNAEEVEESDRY

[11] = target: T10, Sfc1-DBD R269A (Schizosaccharomyces pombe, UniProt O14229 186-396, R269A); assay: as above; conditions: protein: recombinant; tags: N-terminal His-tag, TEV-cleaved; label: 32P; blunt
T10 sequence: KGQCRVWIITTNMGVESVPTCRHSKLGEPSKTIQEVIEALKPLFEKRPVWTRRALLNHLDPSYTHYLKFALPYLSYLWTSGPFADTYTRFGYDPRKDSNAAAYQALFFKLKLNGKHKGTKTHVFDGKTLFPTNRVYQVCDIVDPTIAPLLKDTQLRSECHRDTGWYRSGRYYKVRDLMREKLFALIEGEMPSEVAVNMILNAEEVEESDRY

[12] = target: T11, Sfc1-DBD R269A/K294A (Schizosaccharomyces pombe, UniProt O14229 186-396, R269A;K294A); assay: as above; conditions: protein: recombinant; tags: N-terminal His-tag, TEV-cleaved; label: 32P; blunt
T11 sequence: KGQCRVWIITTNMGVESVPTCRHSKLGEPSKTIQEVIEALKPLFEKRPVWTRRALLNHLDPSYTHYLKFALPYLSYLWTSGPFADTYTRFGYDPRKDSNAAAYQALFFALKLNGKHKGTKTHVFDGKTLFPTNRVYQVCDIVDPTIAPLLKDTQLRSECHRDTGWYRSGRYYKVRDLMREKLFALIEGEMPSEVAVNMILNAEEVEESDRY

[13] = target: T12, Sfc1-DBD (C-terminal DNA-binding domain of Sfc1, residues 186-396), recombinant (Schizosaccharomyces pombe, UniProt O14229 186-396); assay: ITC; 25°C, VP-ITC; 50 mM HEPES pH 7.5, 150 mM NaCl, 2 mM β-mercaptoethanol; 10 µl injections of 200 µM peptide into 2 ml of 10 µM protein; data not shown; conditions: both partners purified
T12 construct: Sfc1, Schizosaccharomyces pombe, residues 186-396 (winged-helix domain 186-283 and WHI domain 284-396); The crystal structure (4BJI) used selenomethionine-substituted protein; Purification details are in the Supplemental Methods; source: E. coli, purified (Ni-NTA, TEV, ion exchange, no gel filtration); not shown: His-tag, N-terminal, cleaved
T12 sequence (looked up): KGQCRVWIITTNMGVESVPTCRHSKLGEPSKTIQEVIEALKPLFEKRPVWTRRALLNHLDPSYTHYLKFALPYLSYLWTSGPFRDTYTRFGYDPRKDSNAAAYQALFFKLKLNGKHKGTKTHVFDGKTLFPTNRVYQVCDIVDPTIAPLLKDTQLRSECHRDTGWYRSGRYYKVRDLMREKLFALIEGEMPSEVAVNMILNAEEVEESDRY

## A-box non-coding ssDNA (nc-ss)
[1]
  binding signal (fold lower affinity than Sfc1-DBD): 10

B1: B-box dsDNA (25 bp) (dsDNA)
DNA 1: CGACCCGGGTTCGATTCCCGGCCAA
DNA 2: TTGGCCGGGAATCGAACCCGGGTCG
[2]
  binding result: binds

B2: Sfc1-NT, smaller protease-resistant Sfc1 fragment (residues 1-107) (domain or fragment, Schizosaccharomyces pombe, UniProt O14229 1-107, looked up)
chain: MNSLKISDNEYALIEHPGFANNKDAFFQTLGGVQSIQKACQTSFQNPKQALLELNLRPKDKYHHPVQARVQSRNDLLVTIKKMDNSVQNVSRIRQVFLFRDMADFQY
notes: Sfc1, Schizosaccharomyces pombe, residues 1-107, assigned by electrospray mass spectrometry and peptide mass fingerprinting; also called smaller Sfc1 fragment; source: limited proteolysis of the purified Sfc1/Sfc7 heterodimer made in E. coli; not shown: His-tag, N-terminal, cleaved
[3]
  binding result: binds

B3: A-box dsDNA (25 bp) (dsDNA)
DNA 1: CGAAGTGGCCGAGTGGTCTATGGCG
DNA 2: CGCCATAGACCACTCGGCCACTTCG
[4]
  binding signal: ~10 fold lower affinity than Sfc1-DBD
[5]
  binding result: no binding
[6]
  binding result: no binding
[7]
  binding result: binds
[8]
  binding result: no binding
[9]
  binding signal: > 2 fold lower affinity than Sfc1-DBD
[10]
  binding signal: > 2 fold lower affinity than Sfc1-DBD
[11]
  binding signal: > 2 fold lower affinity than Sfc1-DBD
[12]
  binding signal: > 2 fold lower affinity than Sfc1-DBD

B4: Sfc1_(435-456) synthetic peptide (22mer acidic Sfc1 tail peptide) (peptide)
peptide: QEHEGFEDLEEIDDDYDDIFGD
notes: Sfc1, Schizosaccharomyces pombe, the 22 C-terminal residues (435-456), pI 3.5; The methods call it Sfc1_(434-456); also called Sfc1_(434-456) peptide (methods); acidic tail peptide; source: synthetic peptide
[13]
  Kd: 3000 ± 800 nM
